Measured values: the Human Domainome abundance scans (Beltran et al. 2025)
± gives the uncertainty stated by the source.

B1: V(D)J recombination-activating protein 2, residues 415 to 491; numbered along this chain, P55895 (parent)
chain: YWITCCPTCDVDINTWVPFYSTELNKPAMIYCSHGDGHWVHAQCMDLAERTLIHLSAGSNKYYCNEHVEIARALHTP

Variants of: B1
Experiment: abundance fitness (aPCA) (normalised: wild type 0, dead -1); higher = more abundant; growth selection in yeast, the domain comes from the species named
Details: Homo sapiens

Abundance fitness of substitutions, site by site:
D12: R 0.107 ± 0.12; T -0.226 ± 0.24; E 0.083 ± 0.42; F -0.244 ± 0.38; M 0.009 ± 0.14; W -0.317 ± 0.28; V -0.304 ± 0.3; G -0.04 ± 0.14; S -0.229 ± 0.22; L -0.332 ± 0.11; N -0.01 ± 0.37
V11: T -0.336 ± 0.13; C 0.012 ± 0.38; A -0.741 ± 0.35; R -0.75 ± 0.37; W -0.178 ± 0.29; G -0.697 ± 0.14; S -0.437 ± 0.14; F -0.386 ± 0.22; M -0.264 ± 0.19
D10: R 0.195 ± 0.17; G -0.03 ± 0.13; W 0.045 ± 0.12; N 0.033 ± 0.14; A 0.065 ± 0.14; M -0.325 ± 0.47; L 0.102 ± 0.2; T 0.019 ± 0.21; S -0.114 ± 0.21; Q 0.121 ± 0.21; V 0.145 ± 0.19; K -0.089 ± 0.18
T15: V 0.015 ± 0.34; I -0.104 ± 0.3; F 0.052 ± 0.36; G 0.055 ± 0.25; A -0.341 ± 0.21; H 0.03 ± 0.29; M -0.011 ± 0.3; R -0.474 ± 0.5
C9: T -0.809 ± 0.38; R -0.668 ± 0.18; Y -0.739 ± 0.33; G -0.916 ± 0.5; F -0.637 ± 0.26; Q -0.175 ± 0.3
T4: L -0.049 ± 0.053; N 0.012 ± 0.091; I -0.016 ± 0.1; P -0.234 ± 0.068; V -0.128 ± 0.045; S -0.037 ± 0.054; M -0.176 ± 0.08; Y -0.141 ± 0.12; Q -0.185 ± 0.077; D -0.022 ± 0.12; W -0.297 ± 0.07; R -0.013 ± 0.035; K -0.048 ± 0.069; E -0.057 ± 0.063; C -0.119 ± 0.1; A -0.122 ± 0.046; F -0.101 ± 0.1
Y1: T -0.098 ± 0.25; E -0.063 ± 0.2; N -0.252 ± 0.17; F -0.07 ± 0.11; W -0.19 ± 0.037; L -0.098 ± 0.087; D -0.108 ± 0.21; A -0.188 ± 0.079; V -0.008 ± 0.08; Q -0.283 ± 0.22; M -0.041 ± 0.089; K -0.365 ± 0.17; G -0.102 ± 0.075; S -0.084 ± 0.053; H -0.399 ± 0.18; R -0.469 ± 0.24
C5: G -0.392 ± 0.2; A -0.616 ± 0.41
W2: P -0.299 ± 0.14; A -0.39 ± 0.07; M -0.226 ± 0.052; V -0.853 ± 0.11; N 0.12 ± 0.31; K -0.162 ± 0.13; I -0.333 ± 0.26; Y 0.055 ± 0.1; R -0.378 ± 0.054; E -0.231 ± 0.076; L -0.467 ± 0.066; G -0.342 ± 0.051; Q -0.382 ± 0.14; H -0.11 ± 0.19
P7: E 0.09 ± 0.22; D 0.002 ± 0.28; R -0.635 ± 0.31; W -0.242 ± 0.23; S 0.075 ± 0.41; L -0.065 ± 0.2; K 0.084 ± 0.31; V -0.006 ± 0.34
N14: V -0.149 ± 0.23; P -0.346 ± 0.49; Q -0.332 ± 0.29; D 0.385 ± 0.33; K -0.004 ± 0.42; S -0.419 ± 0.33; M -0.01 ± 0.32; T 0.039 ± 0.16; R -0.137 ± 0.2; A -0.509 ± 0.4
C6: R -0.432 ± 0.17; K -0.28 ± 0.16; V -0.096 ± 0.26; G -0.024 ± 0.39; L -0.284 ± 0.33; F -0.304 ± 0.48; M -0.393 ± 0.35; S 0.209 ± 0.19
T8: A -0.437 ± 0.17; E 0.058 ± 0.17; Q -0.258 ± 0.2; R -0.204 ± 0.2; D -0.279 ± 0.35; V -0.196 ± 0.23; G -0.277 ± 0.14; W -0.627 ± 0.41; K -0.123 ± 0.17; P -0.159 ± 0.3; N 0.091 ± 0.18; Y -0.541 ± 0.45; S 0.129 ± 0.24
I13: W -0.12 ± 0.23; V -0.35 ± 0.14; S -0.264 ± 0.3; L -0.098 ± 0.14; R 0.114 ± 0.14; G -0.193 ± 0.14; T -0.329 ± 0.22; E 0.172 ± 0.29; M -0.284 ± 0.34; A -0.149 ± 0.39; C -0.059 ± 0.23
W16: G -0.565 ± 0.15; F -0.725 ± 0.42; E -0.894 ± 0.36; C -0.553 ± 0.23
I3: H -0.265 ± 0.078; C -0.117 ± 0.057; Y -0.202 ± 0.098; A -0.057 ± 0.042; Q -0.186 ± 0.075; D 0.004 ± 0.071; T -0.102 ± 0.08; K -0.018 ± 0.057; S -0.118 ± 0.044; M -0.041 ± 0.07; L -0.112 ± 0.042; N -0.053 ± 0.15; G -0.021 ± 0.033; P -0.623 ± 0.078; W -0.159 ± 0.068; V -0.053 ± 0.042; E -0.082 ± 0.074; F 0.044 ± 0.082
